Measured values from patent US20180009889A1 (Novartis, published 2018).
Changes are numbered by the printed parent chain.

T1: ICD3 of MDA-MB468 cells (frame-shift mutation at amino acid 2034, premature stop) (human)
T1 construct: also called smaller ICD3; faster migrating ICD3
T1 chain: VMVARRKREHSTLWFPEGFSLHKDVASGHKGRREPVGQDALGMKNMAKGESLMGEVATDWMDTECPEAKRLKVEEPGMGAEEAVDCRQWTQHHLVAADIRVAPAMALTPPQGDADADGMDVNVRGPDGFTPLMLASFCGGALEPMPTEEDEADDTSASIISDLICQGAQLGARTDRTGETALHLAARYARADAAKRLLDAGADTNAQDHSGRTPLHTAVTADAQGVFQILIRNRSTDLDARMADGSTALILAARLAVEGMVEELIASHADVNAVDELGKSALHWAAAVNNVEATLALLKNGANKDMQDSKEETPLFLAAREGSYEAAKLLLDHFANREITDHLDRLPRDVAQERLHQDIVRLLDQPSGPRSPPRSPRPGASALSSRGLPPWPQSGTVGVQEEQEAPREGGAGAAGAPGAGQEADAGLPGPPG

T2: Gamma secretase cleaved form of the Notch3 intracellular domain (ICD3) (human, UniProt Q9UM47 1662-2321)
T2 construct: also called Notch3 ICD
T2 sequence: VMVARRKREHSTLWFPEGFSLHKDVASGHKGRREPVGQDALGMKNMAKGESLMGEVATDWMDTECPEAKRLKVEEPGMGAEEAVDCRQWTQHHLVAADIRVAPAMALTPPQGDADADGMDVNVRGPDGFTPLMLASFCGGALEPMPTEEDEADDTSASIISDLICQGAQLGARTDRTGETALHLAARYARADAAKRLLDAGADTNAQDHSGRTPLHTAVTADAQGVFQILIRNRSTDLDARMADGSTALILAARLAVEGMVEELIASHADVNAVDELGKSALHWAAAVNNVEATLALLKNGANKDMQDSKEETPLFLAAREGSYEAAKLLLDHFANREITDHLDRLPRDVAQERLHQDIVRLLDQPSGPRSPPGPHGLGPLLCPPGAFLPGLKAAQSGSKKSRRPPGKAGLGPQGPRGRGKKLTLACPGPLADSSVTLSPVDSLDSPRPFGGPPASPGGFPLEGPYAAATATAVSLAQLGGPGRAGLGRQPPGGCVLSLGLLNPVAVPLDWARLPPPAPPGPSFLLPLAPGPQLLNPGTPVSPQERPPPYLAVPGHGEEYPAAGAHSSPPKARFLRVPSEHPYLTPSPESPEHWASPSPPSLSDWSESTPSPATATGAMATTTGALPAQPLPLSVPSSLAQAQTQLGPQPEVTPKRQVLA

B1: 12229 (antibody, human IgG1, lambda, V domains shown)
VH: QVQLVESGGGLVKPGGSLRLSCAASGFTFSSYTMNWVRQAPGKGLEWVGRIKTKTNGGTTDYAAPVKGRFTISRDDSKNTLYLQMNSLKTEDTAVYYCARERSRAGSIFDPWGQGTLVTVSS
VL: DIVLTQPPSVSGAPGQRVTISCSGSSSNIGFNYVSWYQQLPGTAPKLLIYYNNQRPSGVPDRFSGSKSGTSASLAITGLQAEDEADYYCSTWTGTSESHVFGGGTKLTVLG
B2: 12215 (antibody, human IgG1, kappa, V domains shown)
VH: QVQLVESGGGLVKPGGSLRLSCAASGFTFSTYVMHWVRQAPGKGLEWVGRIRSNTYGGITDYAAPVKGRFTISRDDSKNTLYLQMNSLKTEDTAVYYCARAEARYRDVWGQGTLVTVSS
VL: DIQMTQSPSSLSASVGDRVTITCRASQSISSHLNWYQQKPGKAPKLLIYAASNLQSGVPSRFSGSGSGTDFTLTISSLQPEDFATYYCQQDYHTPFTFGQGTKVEIKR
notes: also called MOR 12215
B3: 20358 (antibody, human IgG1, kappa, V domains shown)
VH: QVQLVQSGAEVKKPGSSVKVSCKASGGTFRTYAMHWVRQAPGQGLEWMGGIVPYHGITDYAQKFQGRVTITADESTSTAYMELSSLRSEDTAVYYCARDDYSTYAFAYWGQGTLVTVSS
VL: B2 VL with S30A, H32Y, N34A, A50D, D91A, H93K, F96Y
B4: 12981 (antibody, human IgG1, kappa, V domains shown)
VH: B3 VH with V52I, Y54I, H55F, T58A, D59N
VL: B2 VL with S30A, H32Y, N34A, A50D, D91A, H93K, F96Y
notes: also called MOR 12981
B5: 20337 (antibody, human IgG1, kappa, V domains shown)
VH: B2 VH with S53A, T55A, I59A, T60A
VL: B2 VL
B6: ICD3 Ab (antibody, V domains shown)
VH: QSLEESGGDLVKPGASLTLTCTASGFSFTKNAYMCWDRQAPGKRPEWIACIETGDGTTYYASWAKGRFTVSKTSSTTVTLQMTSLTAADTATYFCARELYDDYGDYFNLWGPGTLVTVSS
VL: ALVMTQTPSSVSAAVGGTVTINCQTSENFYSNDILSWYQQKPGQPPKLLIYEASTLASGVPSRFKGSGSGTQFTLTISDVQCDDAATYYCQGSVLDSGWYDISFGGGTEVVVKG
notes: also called ICD3 antibody
B7: 20345 (antibody, human IgG1, kappa, V domains shown)
VH: QVQLVQSGAEVKKPGSSVKVSCKASGGTFSSYTISWVRQAPGQGLEWMGWIKPKLGMAHYAQKFQGRVTITADESTSTAYMELSSLRSEDTAVYYCARGSFWFGYWGQGTLVTVSS
VL: DIQMTQSPSSLSASVGDRVTITCRASQGINNYLNWYQQKPGKAPKLLIYDASKLQSGVPSRFSGSGSGTDFTLTISSLQPEDFATYYCQQYLQYPMTFGQGTKVEIKR
B8: 20350 (antibody, human IgG1, kappa, V domains shown)
VH: B7 VH with K54R, L55W, M57A
VL: B7 VL
B9: 20351 (antibody, human IgG1, kappa, V domains shown)
VH: B7 VH with K54R, L55Y, M57A, H59M
VL: B7 VL
B10: 12225 (antibody, human IgG1, kappa, V domains shown)
VH: B7 VH with K54A, L55F, M57T, H59N
VL: B7 VL
notes: also called MOR 12225

Experiments:
Human Notch3-Gal4-VP16 [1] = molecular target: Human Notch3-Gal4-VP16 (human); assay: cell-based or functional assay
Human Notch3-Gal4-VP16 [2] = molecular target: Human Notch3-Gal4-VP16 (human); assay: cell-based or functional assay; remark: listed apart in the source
Human Notch3-Gal4-VP16 [3] = molecular target: Human Notch3-Gal4-VP16 (human); assay: cell-based or functional assay; remark: listed apart in the source
cyno LBD [4] = molecular target: T3, cyno LBD; assay: Biacore (SPR); set-up not stated on the sheet
T3 construct: also called N3_EGF4-11_Fc cyno

[5] = molecular target: T4, Human Notch 3 (wild type) (human, UniProt Q9UM47 40-2321); assay: FACS on U2OS_N3 cells (U2OS over-expressing human Notch3)
T4 construct: also called Notch 3 receptor

cyno LBD [6] = molecular target: T3, cyno LBD; assay: ELISA: IgG titrated on directly coated recombinant antigen
cyno LBD [7] = molecular target: T3, cyno LBD; assay: as above; remark: listed apart in the source
EGF32 NRR (human) [8] = assay: Biacore (SPR); set-up not stated on the sheet
EGF32 NRR (cyno) [9] = molecular target: T5, EGF32 NRR (cyno) (cynomolgus monkey); assay: Biacore (SPR); set-up not stated on the sheet
T5 construct: recombinant, C-terminal six histidine tag

EGF32 NRR (mouse) [10] = molecular target: T6, EGF32 NRR (mouse) (mouse, UniProt Q61982); assay: Biacore (SPR); set-up not stated on the sheet
T6 construct: recombinant, C-terminal six histidine tag

EGF32 NRR (human) [11] = assay: ELISA: IgG titrated on directly coated recombinant antigen
EGF32 NRR (cyno) [12] = molecular target: T5, EGF32 NRR (cyno); assay: as above
EGF32 NRR (mouse) [13] = molecular target: T6, EGF32 NRR (mouse); assay: as above
[14] = molecular target: T4, Human Notch 3 (wild type); assay: FACS on U2OS_N3 cells, with U2OS_parental cells as control
EGF32 NRR (cyno) [15] = molecular target: T5, EGF32 NRR (cyno); assay: ELISA: IgG titrated on directly coated recombinant antigen; remark: listed apart in the source
[16] = molecular target: T7, Human Notch3 Negative Regulatory Region (NRR), residues 1378 to 1640 of human Notch3, with C-terminal His tag (human, UniProt Q9UM47 1378-1640); assay: HDx-MS without Ca2+, IgG with Notch 3 NRR
T7 construct: also called Notch3 NRR; Notch 3 NRR
Description: Deuterium exchange was quenched by diluting the exchanged solution 1:1 with (6 M Urea and 1 M TCEP pH=2.5) for 5 minutes at 2° C. After quenching, the sample was injected onto the Waters UPLC system where it was digested using an immobilized pepsin column that was maintained at 12° C. After digestion, peptides were retained on a Waters UPLC HSS T3 2.1×5 mm pre-column.

[17] = molecular target: T1, ICD3 of MDA-MB468 cells (frame-shift …); assay: Western blot of MDA-MB468 cell lysates
Description: Initially these 2 cell line models were used to characterize the effects of Notch3 inhibitory antibodies on Notch3 signaling. […] Antibodies were added directly to the plate and they were further incubated for 72 hr at 37° C., 5% CO₂. […] Suspension cells were spun down and then washed in PBS.
ICD3 levels are a membrane proximal readout of Notch3 signaling activity. […] This ICD3 can be detected as a faster migrating band on a Western blot.

[18] = molecular target: T8, Notch1 intracellular domain (ICD1) (UniProt P46531 1754-2555); assay: Western blot of lysates of T-cell acute lymphoblastic leukemia cell lines
T8 construct: domain: Notch1 intracellular domain (ICD1)
Description: SDS-PAGE: Samples were run under standard conditions in 1× NuPage MOPS SDS running buffer (Invitrogen, cat# NP0001) for approximately 90 min at 180 V. Before transfer to a nitrocellulose membrane (iBlot, Invitrogen), gels were soaked in 2× Transfer Buffer (Invitrogen, cat#NP0006-1) with 20% methanol. Membranes were blocked in 4% milk-TBST for one hour; supernatants from hybidoma supernatants were diluted 1:4 in 2% milk-TBST and incubated ON at 4° C. with gentle shaking. Secondary antibodies were added in 2% milk-TBST for 45 minutes, after a series of membrane washes with TBST. Membrane was developed using ECL Plus Western Detection System (GE healthcare, cat# RPN2232).

[19] = molecular target: T2, Gamma secretase cleaved form of the …; assay: Western blot of TALL-1 cell lysates with hybridoma sub-clone supernatant

T8 sequence (P46531 1754-2555 limits assumed): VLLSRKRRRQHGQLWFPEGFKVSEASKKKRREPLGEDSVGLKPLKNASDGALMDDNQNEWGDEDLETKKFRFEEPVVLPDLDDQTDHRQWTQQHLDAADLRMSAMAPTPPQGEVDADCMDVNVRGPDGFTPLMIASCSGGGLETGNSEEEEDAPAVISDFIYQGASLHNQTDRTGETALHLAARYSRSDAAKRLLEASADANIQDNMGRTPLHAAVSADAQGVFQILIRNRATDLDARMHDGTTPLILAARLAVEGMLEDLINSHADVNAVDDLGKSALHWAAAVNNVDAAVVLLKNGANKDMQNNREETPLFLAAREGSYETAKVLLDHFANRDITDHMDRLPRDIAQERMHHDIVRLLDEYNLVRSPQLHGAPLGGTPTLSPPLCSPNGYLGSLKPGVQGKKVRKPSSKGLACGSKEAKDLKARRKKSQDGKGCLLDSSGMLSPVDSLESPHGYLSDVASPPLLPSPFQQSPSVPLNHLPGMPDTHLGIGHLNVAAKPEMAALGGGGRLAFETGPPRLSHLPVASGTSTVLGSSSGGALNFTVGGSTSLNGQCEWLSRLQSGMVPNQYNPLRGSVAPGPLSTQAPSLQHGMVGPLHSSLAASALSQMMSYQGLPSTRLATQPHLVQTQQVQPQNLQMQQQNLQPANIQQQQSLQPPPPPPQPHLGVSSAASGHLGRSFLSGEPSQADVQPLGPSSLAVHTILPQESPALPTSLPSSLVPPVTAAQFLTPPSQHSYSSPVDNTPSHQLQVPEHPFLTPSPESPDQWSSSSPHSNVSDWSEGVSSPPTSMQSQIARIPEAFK

Row | Binder | % inhibition, Delta 1 co-culture Notch3 reporter gene assay (Human Notch3-Gal4-VP16 [1]) [%] | % inhibition, Jagged1 co-culture Notch3 reporter gene assay (Human Notch3-Gal4-VP16 [1]) [%] | IC50, Delta 1 co-culture Notch3 reporter gene assay (Human Notch3-Gal4-VP16 [1]) [nM] | IC50, Jagged1 co-culture Notch3 reporter gene assay (Human Notch3-Gal4-VP16 [1]) [nM] | Kd (EGF32 NRR (cyno) [9]) [nM] | Kd (EGF32 NRR (mouse) [10]) [nM] | EC50 (EGF32 NRR (cyno) [12]) [nM] | further results
1 | B1 | 85 | 77 | 5.5 | 0.7 |  |  |  | IC50 (read off the curve), Delta1 co-culture reporter gene assay (Human Notch3-Gal4-VP16 [2]): ~5 nM; IC50 (read off the curve), Jagged1 co-culture reporter gene assay (Human Notch3-Gal4-VP16 [3]): ~0.8 nM; Kd (cyno LBD [4]): 24 nM; binding result [5]: binds; EC50 (cyno LBD [6]): 0.5 nM; EC50 (read off the curve) (cyno LBD [7]): ~0.3 nM
2 | B2 | -1 | -5 |  |  | 2.7 | 1 | 0.6 | Kd (EGF32 NRR (human) [8]): 0.9 nM; EC50 (EGF32 NRR (human) [11]): 0.9 nM; EC50 (EGF32 NRR (mouse) [13]): 2.2 nM; EC50 (read off the curve) [14]: ~0.5 nM
3 | B3 |  |  |  |  | 2.7 | 70 | 0.5 | 
4 | B4 | 16 | 56 | 22 | 0.2 | 19 |  | 0.4 | EC50 (read off the curve) (EGF32 NRR (cyno) [15]): ~0.6 nM
5 | B5 | 18 | 60 | 6.4 | 4.6 | 0.4 | 4.4 | 0.6 | binding result [16]: binds; Kd (EGF32 NRR (human) [8]): 0.5 nM; EC50 (EGF32 NRR (human) [11]): 0.8 nM; EC50 (EGF32 NRR (mouse) [13]): 0.7 nM
6 | B6 |  |  |  |  |  |  |  | binding result [17]: binds; binding result [18]: no binding (tested: 1:5000 dilution); binding result [19]: binds
7 | B7 | 19 | -88 | 0.3 | 0.4 | 0.7 |  | 0.6 | 
8 | B8 |  |  |  |  | 0.3 |  | 1.4 | 
9 | B9 | 30 | -50 | 1.4 | 0.8 | 1.2 |  | 0.8 | 
10 | B10 | -8 | -165 |  | 5.8 | 2.7 |  | 0.9 | 
